B1: wild-type huBUB1 (full-length, plasmid p385-1) (protein)
chain: MDTPENVLQMLEAHMQSYKGNDPLGEWERYIQWVEENFPENKEYLITLLEHLMKEFLDKKKYHNDPRFISYCLKFAEYNSDLHQFFEFLYNHGIGTLSSPLYIAWAGHLEAQGELQHASAVLQRGIQNQAEPREFLQQQYRLFQTRLTETHLPAQARTSEPLHNVQVLNQMITSKSNPGNNMACISKNQGSELSGVISSACDKESNMERRVITISKSEYSVHSSLASKVDVEQVVMYCKEKLIRGESEFSFEELRAQKYNQRRKHEQWVNEDRHYMKRKEANAFEEQLLKQKMDELHKKLHQVVETSHEDLPASQERSEVNPARMGPSVGSQQELRAPCLPVTYQQTPVNMEKNPREAPPVVPPLANAISAALVSPATSQSIAPPVPLKAQTVTDSMFAVASKDAGCVNKSTHEFKPQSGAEIKEGCETHKVANTSSFHTTPNTSLGMVQATPSKVQPSPTVHTKEALGFIMNMFQAPTLPDISDDKDEWQSLDQNEDAFEAQFQKNVRSSGAWGVNKIISSLSSAFHVFEDGNKENYGLPQPKNKPTGARTFGERSVSRLPSKPKEEVPHAEEFLDDSTVWGIRCNKTLAPSPKSPGDFTSAAQLASTPFHKLPVESVHILEDKENVVAKQCTQATLDSCEENMVVPSRDGKFSPIQEKSPKQALSSHMYSASLLRLSQPAAGGVLTCEAELGVEACRLTDTDAAIAEDPPDAIAGLQAEWMQMSSLGTVDAPNFIVGNPWDDKLIFKLLSGLSKPVSSYPNTFEWQCKLPAIKPKTEFQLGSKLVYVHHLLGEGAFAQVYEATQGDLNDAKNKQKFVLKVQKPANPWEFYIGTQLMERLKPSMQHMFMKFYSAHLFQNGSVLVGELYSYGTLLNAINLYKNTPEKVMPQGLVISFAMRMLYMIEQVHDCEIIHGDIKPDNFILGNGFLEQDDEDDLSAGLALIDLGQSIDMKLFPKGTIFTAKCETSGFQCVEMLSNKPWNYQIDYFGVAATVYCMLFGTYMKVKNEGGECKPEGLFRRLPHLDMWNEFFHVMLNIPDCHHLPSLDLLRQKLKKVFQQHYTNKIRALRNRLIVLLLECKRSRK
B2: full-length HA-epitope tagged huBUB1 (plasmid p396-1) (protein)
chain: GGGGGGMDTPENVLQMLEAHMQSYKGNDPLGEWERYIQWVEENFPENKEYLITLLEHLMKEFLDKKKYHNDPRFISYCLKFAEYNSDLHQFFEFLYNHGIGTLSSPLYIAWAGHLEAQGELQHASAVLQRGIQNQAEPREFLQQQYRLFQTRLTETHLPAQARTSEPLHNVQVLNQMITSKSNPGNNMACISKNQGSELSGVISSACDKESNMERRVITISKSEYSVHSSLASKVDVEQVVMYCKEKLIRGESEFSFEELRAQKYNQRRKHEQWVNEDRHYMKRKEANAFEEQLLKQKMDELHKKLHQVVETSHEDLPASQERSEVNPARMGPSVGSQQELRAPCLPVTYQQTPVNMEKNPREAPPVVPPLANAISAALVSPATSQSIAPPVPLKAQTVTDSMFAVASKDAGCVNKSTHEFKPQSGAEIKEGCETHKVANTSSFHTTPNTSLGMVQATPSKVQPSPTVHTKEALGFIMNMFQAPTLPDISDDKDEWQSLDQNEDAFEAQFQKNVRSSGAWGVNKIISSLSSAFHVFEDGNKENYGLPQPKNKPTGARTFGERSVSRLPSKPKEEVPHAEEFLDDSTVWGIRCNKTLAPSPKSPGDFTSAAQLASTPFHKLPVESVHILEDKENVVAKQCTQATLDSCEENMVVPSRDGKFSPIQEKSPKQALSSHMYSASLLRLSQPAAGGVLTCEAELGVEACRLTDTDAAIAEDPPDAIAGLQAEWMQMSSLGTVDAPNFIVGNPWDDKLIFKLLSGLSKPVSSYPNTFEWQCKLPAIKPKTEFQLGSKLVYVHHLLGEGAFAQVYEATQGDLNDAKNKQKFVLKVQKPANPWEFYIGTQLMERLKPSMQHMFMKFYSAHLFQNGSVLVGELYSYGTLLNAINLYKNTPEKVMPQGLVISFAMRMLYMIEQVHDCEIIHGDIKPDNFILGNGFLEQDDEDDLSAGLALIDLGQSIDMKLFPKGTIFTAKCETSGFQCVEMLSNKPWNYQIDYFGVAATVYCMLFGTYMKVKNEGGECKPEGLFRRLPHLDMWNEFFHVMLNIPDCHHLPSLDLLRQKLKKVFQQHYTNKIRALRNRLIVLLLECKRSRK

Experiments:
[1] = target: wild type huBUB3 (plasmid p291-2)
Sequence of wild type huBUB3 (plasmid p291-2) (chain, as listed by the source): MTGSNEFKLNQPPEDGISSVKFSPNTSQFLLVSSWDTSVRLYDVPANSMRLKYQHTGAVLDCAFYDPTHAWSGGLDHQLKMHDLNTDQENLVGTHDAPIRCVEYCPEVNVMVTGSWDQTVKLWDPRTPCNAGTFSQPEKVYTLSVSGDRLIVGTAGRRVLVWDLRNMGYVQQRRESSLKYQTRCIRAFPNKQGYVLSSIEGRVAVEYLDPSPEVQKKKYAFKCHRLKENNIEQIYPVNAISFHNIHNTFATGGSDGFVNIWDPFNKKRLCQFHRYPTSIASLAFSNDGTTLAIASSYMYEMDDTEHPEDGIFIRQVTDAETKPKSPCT

Sequence of PHAS-I (Strategene) (Q60876 2-117): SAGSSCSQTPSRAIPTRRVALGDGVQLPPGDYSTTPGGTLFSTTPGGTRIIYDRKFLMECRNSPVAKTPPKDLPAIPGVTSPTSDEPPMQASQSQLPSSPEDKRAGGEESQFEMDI

Row | Protein | phosphorylation of an exogenous substrate (33P-ATP kinase reaction of immunopurified FLAG-BUB3/BUB1, SDS-PAGE, autoradiography) (PHAS-I (Strategene)) | autophosphorylation of HA-huBUB1 [1]
1 | B1 | only PHAS-I demonstrated clear huBUB1-dependent activity as a kinase substrate | –
2 | B2 | – | Co-translation of huBUB3 may stimulate this autophosphorylation activity.

From patent publication US20020123042
